Data reported in patent US10597433B2, “Peptides and combination of peptides for use in immunotherapy against small cell lung cancer and other cancers” (Immatics Biotechnologies GmbH, priority 2015, dated 2020).

Molecular target: HLA-A*02:01 (Homo sapiens, UniProt P04439, D140Y/D185E/D98H/E176V/E277Q/G131W/G231S/I119V/I121R/I166T/I218V/L300P/L318F/N151K/N90K/P208A/P217A/Q86G/Q94H/R138H/R169H/T345S)
Assay: MHC binding assay: UV-ligand exchange with ELISA detection of β2m of stabilized MHC complexes
Details: binding to HLA-A*02:01
From the text: Candidate peptides for T cell based therapies according to the present invention were further tested for their MHC binding capacity (affinity). The individual peptide-MHC complexes were produced by UV-ligand exchange, where a UV-sensitive peptide is cleaved upon UV-irradiation, and exchanged with the peptide of interest as analyzed. Only peptide candidates that can effectively bind and stabilize the peptide-receptive MHC molecules prevent dissociation of the MHC complexes. To determine the yield of the exchange reaction, an ELISA was performed based on the detection of the light chain (β2m) of stabilized MHC complexes. The assay was performed as generally described in Rodenko et al. (Rodenko et al., 2006).
96 well MAXISorp plates (NUNC) were coated over night with 2 μg/ml streptavidin in PBS at room temperature, washed 4× and blocked for 1 h at 37° C. in 2% BSA containing blocking buffer. Refolded HLA-A*02:01/MLA-001 monomers served as standards, covering the range of 15-500 ng/ml. Peptide-MHC monomers of the UV-exchange reaction were diluted 100 fold in blocking buffer. Samples were incubated for 1 h at 37° C., washed four times, incubated with 2 μg/ml HRP conjugated anti-β2m for 1 h at 37° C., washed again and detected with TMB solution that is stopped with […]. Absorption was measured at 450 nm. Candidate peptides that show a high exchange yield (preferably higher than 50%, most preferred higher than 75%) are generally preferred for a generation and production of antibodies or fragments thereof, and/or T cell receptors or fragments thereof, as they show sufficient avidity to the MHC molecules and prevent dissociation of the MHC complexes.

## 73 (SLSSYTPDV; listed as Homo sapiens) [compound 73]
  Peptide exchange (MHC class I binding score, peptide exchange yield): +++ (≥50 = +++)

## 74 (FLDSLSPSV; listed as Homo sapiens) [compound 74]
  Peptide exchange (MHC class I binding score, peptide exchange yield): +++ (≥50 = +++)

## 75 (SLDLHVPSL; listed as Homo sapiens) [compound 75]
  Peptide exchange (MHC class I binding score, peptide exchange yield): +++ (≥50 = +++)

## 77 (AIIDGKIFCV; listed as Homo sapiens) [compound 77]
  Peptide exchange (MHC class I binding score, peptide exchange yield): +++ (≥50 = +++)

## 78 (RIIDPEDLKALL; listed as Homo sapiens) [compound 78]
  Peptide exchange (MHC class I binding score, peptide exchange yield): ++++ (≥75% = ++++)

## 79 (RLLEPAQVQQL; listed as Homo sapiens) [compound 79]
  Peptide exchange (MHC class I binding score, peptide exchange yield): +++ (≥50 = +++)

## 81 (LLAEIGAVTLV; listed as Homo sapiens) [compound 81]
  Peptide exchange (MHC class I binding score, peptide exchange yield): +++ (≥50 = +++)

## 83 (KLLEIDIDGV; listed as Homo sapiens) [compound 83]
  Peptide exchange (MHC class I binding score, peptide exchange yield): +++ (≥50 = +++)

## 84 (KMFENEFLL; listed as Homo sapiens) [compound 84]
  Peptide exchange (MHC class I binding score, peptide exchange yield): +++ (≥50 = +++)

## 85 (FAYDGKDYLTL; listed as Homo sapiens) [compound 85]
  Peptide exchange (MHC class I binding score, peptide exchange yield): +++ (≥50 = +++)

## 86 (KVIDYVPGI; listed as Homo sapiens) [compound 86]
  Peptide exchange (MHC class I binding score, peptide exchange yield): +++ (≥50 = +++)

## 87 (LLQNNLPAV; listed as Homo sapiens) [compound 87]
  Peptide exchange (MHC class I binding score, peptide exchange yield): ++++ (≥75% = ++++)

## 88 (TLHRETFYL; listed as Homo sapiens) [compound 88]
  Peptide exchange (MHC class I binding score, peptide exchange yield): ++++ (≥75% = ++++)

## 89 (IQHDLIFSL; listed as Homo sapiens) [compound 89]
  Peptide exchange (MHC class I binding score, peptide exchange yield): +++ (≥50 = +++)

## 90 (TLVDNISTMAL; listed as Homo sapiens) [compound 90]
  Peptide exchange (MHC class I binding score, peptide exchange yield): +++ (≥50 = +++)

## 91 (KLQDGVHII; listed as Homo sapiens) [compound 91]
  Peptide exchange (MHC class I binding score, peptide exchange yield): +++ (≥50 = +++)

## 92 (YLQDYTDRV; listed as Homo sapiens) [compound 92]
  Peptide exchange (MHC class I binding score, peptide exchange yield): +++ (≥50 = +++)

## 93 (ALRETVVEV; listed as Homo sapiens) [compound 93]
  Peptide exchange (MHC class I binding score, peptide exchange yield): +++ (≥50 = +++)

## 94 (ALFPVAEDISL; listed as Homo sapiens) [compound 94]
  Peptide exchange (MHC class I binding score, peptide exchange yield): +++ (≥50 = +++)

## 95 (ALYSKGILL; listed as Homo sapiens) [compound 95]
  Peptide exchange (MHC class I binding score, peptide exchange yield): ++++ (≥75% = ++++)

## 96 (NLLKLIAEV; listed as Homo sapiens) [compound 96]
  Peptide exchange (MHC class I binding score, peptide exchange yield): ++++ (≥75% = ++++)

## 97 (ALLDGTVFEI; listed as Homo sapiens) [compound 97]
  Peptide exchange (MHC class I binding score, peptide exchange yield): +++ (≥50 = +++)

## 98 (ALVDHLNVGV; listed as Homo sapiens) [compound 98]
  Peptide exchange (MHC class I binding score, peptide exchange yield): +++ (≥50 = +++)

## 99 (QMLEAIKALEV; listed as Homo sapiens) [compound 99]
  Peptide exchange (MHC class I binding score, peptide exchange yield): ++++ (≥75% = ++++)

## 100 (VADPETRTV; listed as Homo sapiens) [compound 100]
  Peptide exchange (MHC class I binding score, peptide exchange yield): + (≥10% = +)

## 101 (AMNSQILEV; listed as Homo sapiens) [compound 101]
  Peptide exchange (MHC class I binding score, peptide exchange yield): +++ (≥50 = +++)

## 102 (ALFARPDLLLL; listed as Homo sapiens) [compound 102]
  Peptide exchange (MHC class I binding score, peptide exchange yield): ++++ (≥75% = ++++)

## 103 (SLLEYQMLV; listed as Homo sapiens) [compound 103]
  Peptide exchange (MHC class I binding score, peptide exchange yield): ++++ (≥75% = ++++)

## 104 (TLIQFTVKL; listed as Homo sapiens) [compound 104]
  Peptide exchange (MHC class I binding score, peptide exchange yield): +++ (≥50 = +++)

## 105 (SMYDKVLML; listed as Homo sapiens) [compound 105]
  Peptide exchange (MHC class I binding score, peptide exchange yield): ++++ (≥75% = ++++)

## 106 (KMPDDVWLV; listed as Homo sapiens) [compound 106]
  Peptide exchange (MHC class I binding score, peptide exchange yield): ++++ (≥75% = ++++)

## 107 (AMYGTKLETI; listed as Homo sapiens) [compound 107]
  Peptide exchange (MHC class I binding score, peptide exchange yield): ++++ (≥75% = ++++)

## 108 (ILLDDQFQPKL; listed as Homo sapiens) [compound 108]
  Peptide exchange (MHC class I binding score, peptide exchange yield): ++++ (≥75% = ++++)

## 109 (SLFERLVVL; listed as Homo sapiens) [compound 109]
  Peptide exchange (MHC class I binding score, peptide exchange yield): ++++ (≥75% = ++++)

## 111 (FLPEAPAEL; listed as Homo sapiens) [compound 111]
  Peptide exchange (MHC class I binding score, peptide exchange yield): +++ (≥50 = +++)

## 112 (LLLPGVIKTV; listed as Homo sapiens) [compound 112]
  Peptide exchange (MHC class I binding score, peptide exchange yield): +++ (≥50 = +++)

## 114 (ALLEPGGVLTI; listed as Homo sapiens) [compound 114]
  Peptide exchange (MHC class I binding score, peptide exchange yield): +++ (≥50 = +++)

## 115 (ALLPSDCLQEA; listed as Homo sapiens) [compound 115]
  Peptide exchange (MHC class I binding score, peptide exchange yield): +++ (≥50 = +++)

## 116 (ALLVRLQEV; listed as Homo sapiens) [compound 116]
  Peptide exchange (MHC class I binding score, peptide exchange yield): ++++ (≥75% = ++++)

## 117 (FLLDSAPLNV; listed as Homo sapiens) [compound 117]
  Peptide exchange (MHC class I binding score, peptide exchange yield): ++++ (≥75% = ++++)

## 118 (KLPSFLANV; listed as Homo sapiens) [compound 118]
  Peptide exchange (MHC class I binding score, peptide exchange yield): +++ (≥50 = +++)

## 120 (SLAADIPRL; listed as Homo sapiens) [compound 120]
  Peptide exchange (MHC class I binding score, peptide exchange yield): +++ (≥50 = +++)

## 121 (YMLEHVITL; listed as Homo sapiens) [compound 121]
  Peptide exchange (MHC class I binding score, peptide exchange yield): +++ (≥50 = +++)

## 122 (SMMPDELLTSL; listed as Homo sapiens) [compound 122]
  Peptide exchange (MHC class I binding score, peptide exchange yield): +++ (≥50 = +++)

## 123 (KLDKNPNQV; listed as Homo sapiens) [compound 123]
  Peptide exchange (MHC class I binding score, peptide exchange yield): +++ (≥50 = +++)

## 124 (SLITDLQTI; listed as Homo sapiens) [compound 124]
  Peptide exchange (MHC class I binding score, peptide exchange yield): +++ (≥50 = +++)

## 125 (LLSEPSLLRTV; listed as Homo sapiens) [compound 125]
  Peptide exchange (MHC class I binding score, peptide exchange yield): +++ (≥50 = +++)

## 126 (AAASLIRLV; listed as Homo sapiens) [compound 126]
  Peptide exchange (MHC class I binding score, peptide exchange yield): + (≥10% = +)
